From patent US20260327294 (published 2026)
Changes are numbered by the printed parent chain.

B1: F6-49 (antibody, V domains shown)
VH: QVQLVESGGGVVLPGTSLTLSCAASGFTFRHYAIHWVRQTPGGGLEWVAALPYDGSTKYFAESVKDRFTIYRDNSQAAAFLHMSSLTPGDTALYYCARSTYSYEYSFLGYFYYMDVWGRGTSVTVSS
VL: QSALTQPASVSGSPGQSISISCTGTSRDVGAYTYISWSQQHTGQAPKLLIYDVSERPSGVSDRFSGSKTGDTASLAISGLQAEDEAVYYCSSYTDSNTVVFGGGTKVTVL
B2: F6-47 (antibody, V domains shown)
VH: QVQLLESGGNVVQPGRSLSLSCVASGFALKSYAVHWVRQAPGKGLEWVAFVPYDAVTNYYADSVKGRFTVSRDISKNTVNLHMNRLMGEDTAVYFCARGATSGSYSFLGYNYYMDVWGRGTAVTVSS
VL: QSALTQPASVSGSPGQPITISCTGTSSDVGAYTYVSWYQHHPGKAPKLILFDVTDRPSGVSHRFSGSKSGNTASLTISGLQSEDEAEYYCSSYTDRNTIVFGGGTTLTVL
B3: F6-37 (antibody, V domains shown)
VH: QVHLVESGGNVVHPGTSLSLSCAGSGFTFKSHAIHWVRQAPGRGLEWVAFVPYDGATNYYADSLKGRFTVSRDNSRNTVSLHMNRLEGQDTAVYFCARGATSGSYSFLGYNYYMDVWGRGTTVTVSS
VL: B2 VL with P17S, H40Q, H41L, I49L, S61A, S82A, I99L, T106K
B4: MEDI8897 (antibody, V domains shown)
VH: QVQLVQSGAEVKKPGSSVMVSCQASGGLLEDYIINWVRQAPGQGPEWMGGIIPVLGTVHYGPKFQGRVTITADESTDTAYMELSSLRSEDTAMYYCATETALVVSETYLPHYFDNWGQGTLVTVSS
VL: DIQMTQSPSSLSAAVGDRVTITCQASQDIVNYLNWYQQKPGKAPKLLIYVASNLETGVPSRFSGSGSGTDFSLTISSLQPEDVATYYCQQYDNLPLTFGGGTKVEIKR
B5: F6-56 (antibody, V domains shown)
VH: QVQLVESGGDVVRPGTSLRLSCAASGFAFRSHALHWVRQAPGKGLEWVSVISYDGGHTNSADSVKGRFTVSRDNSKNILFLQMNSLRIEDTAVYFCARSEGSYRSWPGYFYYMDVWGNGTTVTVSS
VL: QSALTQPASVSGSPGQSITISCIGTSSDVGGYYYVSWYQQHPGKAPKLIIFDVSDRPSGVSSRFSGSQSGNTASLTISGLQAEDEADYYCNSYSSSTTPYVFGSGTKVTVL

The binders below were run against RSV A2 pre-F (RSV A2) (assay: BLI).
B1 gave a Kd of 0.713 nM. B2 showed a Kd of 0.343 nM. With B3 the Kd was 0.68 nM. In the case of B4, the Kd is reported as 0.122 nM. With B5 the Kd was 0.381 nM.

These binders were tested against RSV A2 pre-F (RSV A2) (assay: ELISA).
B1 gave an EC50 of 0.0104 µg/mL. For B2, the EC50 was 0.00998 µg/mL. In the case of B3, the EC50 is reported as 0.0117 µg/mL. B4 showed an EC50 of 0.0146 µg/mL. With B5 the EC50 was 0.0141 µg/mL.

Target: RSV A2 pre-F (RSV A2)
Assay: BLI
Remark: another data set of the same source
B4 was tested, and the Kd was 0.379 nM.

Target: RSV A2 pre-F (RSV A2)
Assay: ELISA
Remark: another data set of the same source
B4 was tested, and the EC50 was 0.0313 µg/mL.
